Source: the supplement of paper PMC9732359
± gives the uncertainty stated by the source.

Assay: protein stability index of a GFP-peptide fusion (yeast GPS) (PSI 1-4); higher = more stable; sorted into four equal gates, so the index is relative within each strain
In short: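 Plasmids in a pooled yeast library fused tiled 17-residue yeast protein peptides downstream of GFP and also expressed Cherry. Mid-log cultures grown without leucine were sorted into four equal gates by GFP/Cherry fluorescence ratio. Each gate's plasmids were PCR-amplified and Illumina-sequenced, and reads were matched to strains by barcodes. The protein stability index is derived by multiplying each gate's read frequency by its gate number and summing the results.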

| Sequence | protein stability index (pdr5∆) | protein stability index (ubr1∆) | protein stability index (doa10∆) | protein stability index (san1∆) |
| --- | --- | --- | --- | --- |
| ATLNYIDKNHGFERLTV [SRB7] | 3.28 ± 0.15 | 3.49 ± 0.13 |  |  |
| IVVLVPKFGVEGLIRLD [DIS3] | 2.41 ± 0.063 | 2 ± 0.054 | 2.16 ± 0.07 | 2.31 ± 0.085 |
| EINTALNTLLVTSADSN [SWI1] | 2.16 ± 0.048 | 1.74 ± 0.065 | 2.05 ± 0.065 | 2.38 ± 0.064 |
| VYRFVTENAIEEKVIER [ISW2] | 2.46 ± 0.14 | 2.7 ± 0.063 | 2.42 ± 0.11 | 2.5 ± 0.25 |
| VNQDSTYKYFEVILVDP [RPL15A] | 3.43 ± 0.082 | 3.19 ± 0.057 | 3.21 ± 0.068 | 3.12 ± 0.048 |
| KKLATRPKCGDCGSALQ [RPL34A] | 2.88 ± 0.16 | 2.89 ± 0.12 | 2.52 ± 0.12 | 2.31 ± 0.16 |
| NGIIMNGTLIGCVSYSP [YMR153W/NUP53] | 1.95 ± 0.076 | 2.24 ± 0.083 | 1.99 ± 0.066 | 2.46 ± 0.21 |
| LTKKEKKEANLFPEQQT [RPL6B] | 3.21 ± 0.072 | 3.15 ± 0.049 | 3.08 ± 0.073 | 3.25 ± 0.06 |
| FSFGQNNNNTNTQPSAS [YGR119C/NUP57] | 2.61 ± 0.069 | 2.78 ± 0.043 | 2.87 ± 0.071 | 2.82 ± 0.06 |
| QRSKKIQPTAKVVYIQR [DIS3] | 2.56 ± 0.22 |  | 2.23 ± 0.27 | 2.92 ± 0.17 |
| LVRNGPNEHPGAKYVIR [RPO21] | 2.95 ± 0.1 | 2.8 ± 0.084 | 2.91 ± 0.095 | 2.76 ± 0.14 |
| SQVYAIRQAIAKGLVAY [RPS16A] | 2.35 ± 0.071 | 2.42 ± 0.055 | 2.22 ± 0.069 | 2.27 ± 0.1 |
| EHVILGNGELYMDCLLY [SNU114] | 2.73 ± 0.073 | 2.67 ± 0.063 | 2.31 ± 0.053 | 2.76 ± 0.086 |
| KESDESKSAFSFGSKPT [YJL041W/NSP1] | 3.22 ± 0.061 | 3.108 ± 0.031 | 3.1 ± 0.048 | 3.198 ± 0.029 |
| KVDIPLEVVQYIEDGRN [NUT2] | 1.59 ± 0.065 | 1.59 ± 0.046 | 2.46 ± 0.066 | 1.34 ± 0.094 |
| VITNLFSAIPFVGNDIV [COB] | 3.12 ± 0.053 | 3.13 ± 0.036 | 3.14 ± 0.05 | 3.14 ± 0.034 |
| DLEKTERIVVSYEYYNI [SMC2] | 2.6 ± 0.073 | 2.67 ± 0.045 | 2.76 ± 0.073 | 2.71 ± 0.074 |
| ISSHSHPVSLISFAIYS [RRP42] | 1.62 ± 0.058 | 1.54 ± 0.033 | 1.51 ± 0.052 | 1.86 ± 0.075 |
| QTSLVRMFEKNVMLNIY [SKI6] | 3.17 ± 0.11 | 3.12 ± 0.076 |  | 3.29 ± 0.13 |
| STGGKAPRKQLASKAAR [HHT1] | 3.35 ± 0.21 | 3.25 ± 0.21 | 2.35 ± 0.23 | 3.03 ± 0.1 |
| LGRLSVRELVEKIDGMD [RPC82] | 3.4 ± 0.26 | 3.3 ± 0.063 | 3.08 ± 0.19 | 3.23 ± 0.11 |
| EIPETGEYSVKLLKGAT [FAS2] | 3.46 ± 0.089 | 3.35 ± 0.078 | 3.18 ± 0.12 | 3.32 ± 0.049 |
| IQDTLRTGSQSPPSSSQ [MED7] | 2.91 ± 0.05 | 2.89 ± 0.032 | 2.81 ± 0.044 | 2.77 ± 0.043 |
| SQLGGNKTVNEAAKPSL [YJL041W/NSP1] | 3.09 ± 0.079 | 3.26 ± 0.07 | 3.36 ± 0.11 | 2.32 ± 0.17 |
| WHGVHRNPARLMETLRT [RPB2] | 1.3 ± 0.066 | 1.2 ± 0.045 | 1.35 ± 0.073 | 1.55 ± 0.18 |
| RKSDQQDVLKGSSASSR [POP1] | 3.06 ± 0.1 | 3.31 ± 0.096 | 3.29 ± 0.12 | 3.14 ± 0.071 |
| DLTNNPQDDDSQSKMMS [MTR3] | 3.39 ± 0.073 | 3.31 ± 0.055 | 3.17 ± 0.084 | 3.09 ± 0.074 |

| Sequence | protein stability index (pdr5∆) | protein stability index (ubr1∆) | protein stability index (doa10∆) | protein stability index (san1∆) |
| --- | --- | --- | --- | --- |
| IQRGRILPTDGSAEFNV [RPB7] | 3.05 ± 0.086 | 2.79 ± 0.075 | 2.8 ± 0.14 | 3.03 ± 0.081 |
| TKYSDVLGFLQLFHNLI [YJL039C/NUP192] | 2.65 ± 0.062 | 2.94 ± 0.049 | 2.75 ± 0.063 | 2.86 ± 0.048 |
| ILYGPPGTGKTLLARAV [RPT6] | 3.09 ± 0.23 | 2.95 ± 0.21 | 3.4 ± 0.16 | 3.35 ± 0.16 |
| DKSIDTSSLQLYKFQNF [YML103C/NUP188] | 3.05 ± 0.086 | 2.99 ± 0.055 | 2.67 ± 0.064 | 2.7 ± 0.055 |
| QIPTPNNTVDPGFDEFQ [CSI1] | 2.98 ± 0.045 | 2.89 ± 0.039 | 3.17 ± 0.057 | 3.04 ± 0.043 |
| AIKYGYEDSGSTYKHDR [SRB4] |  | 3.15 ± 0.14 | 3.22 ± 0.17 | 3.43 ± 0.14 |
| RIGRIEDVTPVPSDSTR [RPS14A] | 3.15 ± 0.065 | 3.16 ± 0.052 | 2.85 ± 0.082 | 3.26 ± 0.053 |
| VNLSQEALQYDPQPFLK [SNU114] | 2.84 ± 0.061 | 3 ± 0.046 | 2.99 ± 0.056 | 2.97 ± 0.044 |
| PGRIDRKILFENPDLST [RPT2] | 3.52 ± 0.28 | 3.37 ± 0.056 |  | 3.35 ± 0.14 |
| IGTHHAGLTRSDRSLSE [BRR2] | 2.05 ± 0.2 | 2.62 ± 0.07 | 2.2 ± 0.11 | 1.47 ± 0.14 |
| MKYDIFAKFIHHIHHFE [IRR1] | 2.54 ± 0.055 | 2.74 ± 0.05 | 2.03 ± 0.079 | 2.46 ± 0.065 |
| SKLAEEKIRAAGGVVEL [RPL28] | 3.08 ± 0.034 | 2.943 ± 0.025 | 2.85 ± 0.04 | 3.09 ± 0.037 |
| TNLKNHPAYLFKGLETP [YLR018C/POM34] | 2.51 ± 0.039 | 2.36 ± 0.028 | 2.38 ± 0.055 | 1.59 ± 0.061 |
| VRSGVSKSAPSKKISNT [YAR002W/NUP60] | 3.25 ± 0.088 | 3.38 ± 0.056 | 3.28 ± 0.085 | 3.26 ± 0.049 |
| ANTPVLRKSELEYYAML [RPL30] | 2.99 ± 0.093 | 2.81 ± 0.076 | 2.57 ± 0.096 | 2.23 ± 0.095 |
| IDDFTTRLWGSVYYHKG [SNU114] | 3.41 ± 0.17 | 3.31 ± 0.13 | 3.06 ± 0.24 |  |
| DLQKLLKGIQEFGADWY [SWI3] | 3.07 ± 0.056 | 3.22 ± 0.053 | 3.1 ± 0.062 | 3.09 ± 0.043 |
| VKRLLFTIRGFKQKLNE [MTW1] | 2.76 ± 0.048 | 3.14 ± 0.043 | 3.04 ± 0.058 | 2.86 ± 0.044 |
| SETQTKDENNTANDQYS [YCG1] | 3.15 ± 0.056 | 3 ± 0.044 | 2.89 ± 0.069 | 2.84 ± 0.041 |
| ADVLYKTAFKPHELTES [QCR2] | 3.17 ± 0.059 | 3.15 ± 0.045 | 3.11 ± 0.062 | 2.98 ± 0.051 |
| KNLKHIDVTFTKVNNQL [RPL9A] | 2.58 ± 0.053 | 2.62 ± 0.045 | 2.79 ± 0.057 | 2.52 ± 0.07 |
| QEEGSFEFGNMKATSNT [FAS2] | 3.38 ± 0.07 | 3.17 ± 0.042 | 3.28 ± 0.05 | 3.14 ± 0.056 |
| LKHLEEMGKLRERDITS [RRI2] | 2.58 ± 0.11 | 3.16 ± 0.068 | 2.76 ± 0.079 | 2.55 ± 0.15 |
| VQGELKPTVILKLLKEN [FAS1] | 2.53 ± 0.14 | 2.99 ± 0.28 | 2.36 ± 0.17 | 2.75 ± 0.19 |
| EKSKALESEIASSSAKL [SMC2] | 2.96 ± 0.078 | 2.97 ± 0.075 | 2.64 ± 0.071 | 3.03 ± 0.043 |
| ALIENKKAKLVLIANDV [RPL8A] | 2.51 ± 0.093 | 2.46 ± 0.12 | 2.76 ± 0.1 | 2.56 ± 0.12 |
| HSFIKMLQMKGKLLRNY [SIR2] | 2.4 ± 0.12 | 2.15 ± 0.067 | 2.19 ± 0.09 | 2.27 ± 0.16 |
